From patent US20240024520A1 (UCB, published 2024) come the findings set out here.

Several values for one entry are separate records, joined by “and”; a condition that tells them apart may be missing. Identical values can stand only once. Like-named read-outs stand apart in the source and are kept apart here. Ends that are not written are not given here. * marks the point of attachment. Cam = NC(=O)C* Some results are limits rather than exact numbers.

For test [1], the target named is T1, human complement component C5 (human, UniProt P01031 19-673; P01031 678-1676). The experiment in a line: cell-based or functional assay.
T1 sequence (P01031 19-673 limits assumed, chain 1 of 2): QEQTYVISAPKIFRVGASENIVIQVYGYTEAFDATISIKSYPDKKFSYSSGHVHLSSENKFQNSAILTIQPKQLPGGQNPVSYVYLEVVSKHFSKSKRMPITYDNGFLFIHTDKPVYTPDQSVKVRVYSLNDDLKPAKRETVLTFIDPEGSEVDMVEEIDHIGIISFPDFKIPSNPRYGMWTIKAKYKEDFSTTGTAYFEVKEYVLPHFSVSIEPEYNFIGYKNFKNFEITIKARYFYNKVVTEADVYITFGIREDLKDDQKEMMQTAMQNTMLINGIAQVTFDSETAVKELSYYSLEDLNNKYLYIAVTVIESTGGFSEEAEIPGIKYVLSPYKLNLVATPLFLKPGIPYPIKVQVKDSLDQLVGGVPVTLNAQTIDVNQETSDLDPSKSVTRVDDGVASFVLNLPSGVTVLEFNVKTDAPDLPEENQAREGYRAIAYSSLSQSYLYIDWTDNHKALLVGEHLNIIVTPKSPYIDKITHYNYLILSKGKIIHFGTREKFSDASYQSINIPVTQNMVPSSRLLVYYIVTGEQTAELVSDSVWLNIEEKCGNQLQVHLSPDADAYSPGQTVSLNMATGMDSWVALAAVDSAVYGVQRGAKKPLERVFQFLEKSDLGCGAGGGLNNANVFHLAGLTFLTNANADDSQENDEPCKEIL
T1 sequence (P01031 678-1676 limits assumed, chain 2 of 2): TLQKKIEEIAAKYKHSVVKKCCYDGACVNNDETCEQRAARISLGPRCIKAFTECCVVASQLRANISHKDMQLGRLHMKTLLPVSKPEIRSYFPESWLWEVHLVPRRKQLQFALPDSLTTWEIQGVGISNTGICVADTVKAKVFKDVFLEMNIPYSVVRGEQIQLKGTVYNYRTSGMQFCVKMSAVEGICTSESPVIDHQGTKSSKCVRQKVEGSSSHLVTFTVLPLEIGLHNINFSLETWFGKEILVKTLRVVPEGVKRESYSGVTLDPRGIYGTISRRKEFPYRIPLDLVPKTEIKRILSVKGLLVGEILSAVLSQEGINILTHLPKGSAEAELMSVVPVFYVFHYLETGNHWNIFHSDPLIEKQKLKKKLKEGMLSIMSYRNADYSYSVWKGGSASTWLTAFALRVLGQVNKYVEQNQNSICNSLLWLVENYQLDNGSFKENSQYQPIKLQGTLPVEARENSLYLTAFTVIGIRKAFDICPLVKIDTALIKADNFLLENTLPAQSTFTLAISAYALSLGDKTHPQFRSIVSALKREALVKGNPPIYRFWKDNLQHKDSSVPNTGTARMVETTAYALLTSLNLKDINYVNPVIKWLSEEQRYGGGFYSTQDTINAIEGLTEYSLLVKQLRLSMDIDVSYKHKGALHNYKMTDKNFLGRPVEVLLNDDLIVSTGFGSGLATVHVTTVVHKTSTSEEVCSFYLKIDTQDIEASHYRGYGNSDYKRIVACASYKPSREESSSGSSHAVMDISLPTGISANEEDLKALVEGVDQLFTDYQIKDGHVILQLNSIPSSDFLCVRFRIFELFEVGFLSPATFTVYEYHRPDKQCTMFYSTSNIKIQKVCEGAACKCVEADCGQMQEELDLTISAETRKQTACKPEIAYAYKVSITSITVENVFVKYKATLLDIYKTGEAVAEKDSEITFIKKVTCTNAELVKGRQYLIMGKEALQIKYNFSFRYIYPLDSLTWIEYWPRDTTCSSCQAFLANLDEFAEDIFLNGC
For test [2], the target named is T1, human complement component C5. Kind of test: cell-based or functional assay. This is another data set of the same source.
The target is the same in test [3]. The experiment in a line: cell-based or functional assay. The source holds these as a separate data set.
For test [4] the target is unchanged.
The target in another test is T2, mouse C5 (mouse, UniProt P06684 19-674; P06684 679-1680).
T2 construct: mature; also called mouse C5 protein
Kind of test: SPR single-cycle kinetics.

Test [5] deals with T1, human complement component C5. Kind of test: SPR single-cycle kinetics.
The target in another test is T3, ovalbumin (UniProt P01012 2-386).
T3 sequence (looked up): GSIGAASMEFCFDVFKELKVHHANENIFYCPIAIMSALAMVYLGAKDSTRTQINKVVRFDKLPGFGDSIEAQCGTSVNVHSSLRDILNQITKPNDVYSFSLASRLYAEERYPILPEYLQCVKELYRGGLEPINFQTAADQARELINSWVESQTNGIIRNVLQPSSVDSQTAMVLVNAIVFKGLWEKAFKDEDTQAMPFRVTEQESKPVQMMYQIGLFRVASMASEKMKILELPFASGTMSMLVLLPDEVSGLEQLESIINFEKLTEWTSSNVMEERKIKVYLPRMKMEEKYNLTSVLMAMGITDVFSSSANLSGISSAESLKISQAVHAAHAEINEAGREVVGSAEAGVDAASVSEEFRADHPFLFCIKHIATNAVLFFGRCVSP
The experiment in a line: counter screen. In general terms: Counterscreens check selectivity or assay interference.

Test [6] addresses T4, human complement component C3 (human, UniProt P01024 23-667; P01024 672-1663).
T4 construct: also called biotinylated C3
The experiment in a line: counter screen.

Test [7] deals with T1, human complement component C5. This is another data set of the same source.
Test [8] has the same target. Kind of test: cell-based or functional assay. This is another data set of the same source.
The target is the same in test [9]. The experiment in a line: cell-based or functional assay. This is another data set of the same source.
The target is the same in test [10]. Kind of test: cell-based or functional assay. The source holds these as a separate data set.
Test [11] shares this target. Kind of test: cell-based or functional assay. The source holds these as a separate data set.
Another test has as its target T5, human serum albumin (human, UniProt P02768 25-609).
T5 construct: also called HSA
The experiment in a line: monoclonal phage ELISA. Background: An ELISA detects its analyte on a solid surface through an enzyme-linked reagent.

For test [12], the target named is T1, human complement component C5. The experiment in a line: SPR (Biacore), C5. On the technique in general: In SPR one partner is held on a chip, and binding of the other changes the refractive index at the surface.
Test [13] deals with T4, human complement component C3. The experiment in a line: cell-based or functional assay.
Test [14] shares this target. The experiment in a line: SPR (Biacore), C3, mean of n=3.
The target is the same in test [15]. The experiment in a line: cell-based or functional assay. This is another data set of the same source.
Test [16] has the same target. Kind of test: phage ELISA, OD 630 nm, anti-M13 HRP; C3 coated directly and biotinylated C3 captured on streptavidin.
For test [17], the target named is T1, human complement component C5. Kind of test: phage ELISA, OD 630 nm, anti-M13 HRP; C5 coated directly and biotinylated C5 captured on streptavidin.
Test [18] shares this target. Kind of test: cell-based or functional assay. The source holds these as a separate data set.
For test [19] the target is unchanged. The experiment in a line: SPR multi-cycle kinetics, human C5 immobilised, mean of n=3.
Test [20] has the same target. Kind of test: cell-based or functional assay. This is another data set of the same source.
The target is the same in test [21]. The experiment in a line: cell-based or functional assay. The source holds these as a separate data set.
For test [22] the target is unchanged. Kind of test: cell-based or functional assay. This is another data set of the same source.
The target of a further test is T6, rat C5 (Rattus norvegicus (rat), UniProt P08650 19-1681, limits assumed).
T6 construct: also called C5 protein from Rattus norvegicus (rat)
T6 sequence (P08650 19-1681 limits assumed): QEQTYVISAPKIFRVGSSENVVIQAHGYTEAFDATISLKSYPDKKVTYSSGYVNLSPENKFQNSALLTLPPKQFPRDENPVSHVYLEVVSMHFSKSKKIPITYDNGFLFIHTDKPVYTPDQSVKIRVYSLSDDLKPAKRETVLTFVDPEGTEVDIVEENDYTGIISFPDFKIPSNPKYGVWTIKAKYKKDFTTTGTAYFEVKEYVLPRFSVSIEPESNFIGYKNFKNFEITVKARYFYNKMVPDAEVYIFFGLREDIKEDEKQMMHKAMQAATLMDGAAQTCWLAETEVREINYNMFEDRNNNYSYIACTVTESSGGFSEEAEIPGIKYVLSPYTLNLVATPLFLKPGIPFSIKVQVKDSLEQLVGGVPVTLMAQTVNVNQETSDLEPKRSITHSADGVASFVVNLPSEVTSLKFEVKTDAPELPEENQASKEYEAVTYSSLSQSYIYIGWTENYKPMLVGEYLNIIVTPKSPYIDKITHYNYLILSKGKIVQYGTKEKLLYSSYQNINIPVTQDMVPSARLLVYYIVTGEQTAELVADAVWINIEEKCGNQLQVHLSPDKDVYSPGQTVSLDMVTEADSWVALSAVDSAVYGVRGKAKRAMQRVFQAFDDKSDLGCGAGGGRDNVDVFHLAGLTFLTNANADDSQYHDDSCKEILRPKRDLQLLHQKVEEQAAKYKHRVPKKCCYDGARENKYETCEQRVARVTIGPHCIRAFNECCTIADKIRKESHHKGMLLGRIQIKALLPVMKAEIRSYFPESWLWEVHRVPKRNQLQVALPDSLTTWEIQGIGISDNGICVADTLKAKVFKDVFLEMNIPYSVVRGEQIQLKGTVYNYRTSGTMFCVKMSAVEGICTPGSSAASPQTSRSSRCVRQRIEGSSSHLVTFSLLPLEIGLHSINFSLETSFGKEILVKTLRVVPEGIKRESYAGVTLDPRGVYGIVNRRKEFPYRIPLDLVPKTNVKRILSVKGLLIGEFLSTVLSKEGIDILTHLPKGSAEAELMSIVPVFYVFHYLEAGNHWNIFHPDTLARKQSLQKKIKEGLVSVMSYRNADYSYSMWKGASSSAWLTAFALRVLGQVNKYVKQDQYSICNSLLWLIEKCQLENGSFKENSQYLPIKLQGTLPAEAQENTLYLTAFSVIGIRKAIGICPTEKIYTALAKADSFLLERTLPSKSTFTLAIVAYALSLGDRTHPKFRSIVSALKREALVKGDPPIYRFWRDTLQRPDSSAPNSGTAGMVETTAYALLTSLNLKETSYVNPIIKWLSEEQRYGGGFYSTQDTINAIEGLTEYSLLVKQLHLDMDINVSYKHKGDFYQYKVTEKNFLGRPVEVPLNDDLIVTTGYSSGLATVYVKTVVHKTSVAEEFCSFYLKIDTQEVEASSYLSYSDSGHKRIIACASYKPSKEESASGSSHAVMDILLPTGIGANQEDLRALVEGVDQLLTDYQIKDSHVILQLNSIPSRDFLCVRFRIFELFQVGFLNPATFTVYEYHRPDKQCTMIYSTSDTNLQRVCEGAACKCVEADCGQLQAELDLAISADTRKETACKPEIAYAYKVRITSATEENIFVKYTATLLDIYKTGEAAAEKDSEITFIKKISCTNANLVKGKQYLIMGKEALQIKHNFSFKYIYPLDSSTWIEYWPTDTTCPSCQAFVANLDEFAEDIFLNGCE
The experiment in a line: SPR multi-cycle kinetics, rat C5 immobilised.

For test [23], the target named is T1, human complement component C5. The experiment in a line: SPR, cysteines reduced and capped with iodoacetamide; K57, cysteines reduced and capped with iodoacetamide.
For test [24] the target is unchanged. The experiment in a line: SPR single-cycle kinetics (Biacore 8K), C5 amine-coupled to a CM5 chip.
Test [25] has the same target. Kind of test: SPR, cysteines reduced and capped with iodoacetamide; K92, cysteines reduced and capped with iodoacetamide.

T4 sequence (P01024 23-667 limits assumed, chain 1 of 2): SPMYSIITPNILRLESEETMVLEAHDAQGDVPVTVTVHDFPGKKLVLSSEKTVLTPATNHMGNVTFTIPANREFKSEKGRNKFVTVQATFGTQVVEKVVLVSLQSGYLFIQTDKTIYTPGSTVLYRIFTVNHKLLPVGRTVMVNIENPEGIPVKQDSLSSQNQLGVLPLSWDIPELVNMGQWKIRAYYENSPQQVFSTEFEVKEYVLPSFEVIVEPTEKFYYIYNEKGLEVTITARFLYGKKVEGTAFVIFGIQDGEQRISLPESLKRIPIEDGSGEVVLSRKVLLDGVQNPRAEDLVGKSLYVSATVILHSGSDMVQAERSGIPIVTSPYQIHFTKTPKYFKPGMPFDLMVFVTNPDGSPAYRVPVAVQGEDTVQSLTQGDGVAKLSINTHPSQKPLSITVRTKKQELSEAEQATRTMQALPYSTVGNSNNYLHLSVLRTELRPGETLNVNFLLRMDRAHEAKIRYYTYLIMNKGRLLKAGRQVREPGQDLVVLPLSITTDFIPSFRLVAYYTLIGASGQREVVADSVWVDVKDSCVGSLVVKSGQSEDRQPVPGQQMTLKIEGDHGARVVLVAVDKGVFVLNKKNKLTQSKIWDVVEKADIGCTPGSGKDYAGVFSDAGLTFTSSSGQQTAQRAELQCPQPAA
T4 sequence (P01024 672-1663 limits assumed, chain 2 of 2): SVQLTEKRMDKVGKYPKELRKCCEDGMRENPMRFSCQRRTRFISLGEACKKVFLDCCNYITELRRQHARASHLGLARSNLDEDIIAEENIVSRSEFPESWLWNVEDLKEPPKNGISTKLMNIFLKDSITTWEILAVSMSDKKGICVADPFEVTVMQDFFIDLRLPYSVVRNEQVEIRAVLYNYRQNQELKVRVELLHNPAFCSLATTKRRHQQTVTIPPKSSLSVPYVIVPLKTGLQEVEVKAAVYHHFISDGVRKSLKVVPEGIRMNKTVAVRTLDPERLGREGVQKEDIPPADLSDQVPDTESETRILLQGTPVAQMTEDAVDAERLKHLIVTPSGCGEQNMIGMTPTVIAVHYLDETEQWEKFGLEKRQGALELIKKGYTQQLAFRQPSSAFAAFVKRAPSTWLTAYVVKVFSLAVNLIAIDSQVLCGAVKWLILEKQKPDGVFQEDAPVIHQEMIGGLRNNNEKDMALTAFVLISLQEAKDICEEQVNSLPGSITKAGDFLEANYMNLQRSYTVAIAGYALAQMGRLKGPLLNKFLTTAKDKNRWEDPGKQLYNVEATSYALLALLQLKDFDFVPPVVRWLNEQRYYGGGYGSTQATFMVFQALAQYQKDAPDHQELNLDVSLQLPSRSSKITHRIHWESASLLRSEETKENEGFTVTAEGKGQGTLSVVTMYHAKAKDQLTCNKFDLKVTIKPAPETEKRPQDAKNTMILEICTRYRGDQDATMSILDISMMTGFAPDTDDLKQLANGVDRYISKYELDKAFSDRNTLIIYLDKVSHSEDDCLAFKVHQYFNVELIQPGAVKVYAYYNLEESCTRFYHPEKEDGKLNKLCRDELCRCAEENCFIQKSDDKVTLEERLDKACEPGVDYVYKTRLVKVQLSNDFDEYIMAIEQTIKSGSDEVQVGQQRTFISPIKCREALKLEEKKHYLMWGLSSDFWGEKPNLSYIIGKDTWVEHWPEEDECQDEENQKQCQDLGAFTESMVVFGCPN

A word on the Kd: it is the constant that tells how readily two partners part at equilibrium. The low end stands for higher affinity, the high end for lower affinity. By koff is commonly meant the first-order rate constant of dissociation. A higher koff goes with fast dissociation. As a reminder, the kon is the rate constant with which the complex forms. A lower kon goes with slower complex formation. For orientation: IC50 means the midpoint of a concentration-inhibition curve. A word on the Ki: it is a measure of affinity in units of concentration, obtained from inhibition or displacement. Read a high Ki as lower affinity. For the molecule GSSGCPPGYKSGVDCSPGSECKWGCYAVDGRRYGGYGADSGVENLYFQ (Recombinant, cut out by TEV protease) [K57 knob domain peptide cleaved from the 645 Fab], in test [1], the “Inhibition of alternative pathway mediated bacterial lysis, average Emax” value amounted to 122% and the “Inhibition of alternative pathway mediated bacterial lysis, geomean IC50” value came out at 1020 nM. In [2], the “Inhibition of classical pathway mediated bacterial lysis, geomean IC50” value was found to be 115 nM. Moreover, in test [3], the “AP mediated bacterial killing assay, IC50” value is 1220 nM. In addition, in test [4], the dissociation constant (Kd) was determined as 1.4 nM, the koff was 0.000408 s⁻¹ and the kon came to 298000 M⁻¹ s⁻¹. Also, the binding result with mouse C5 is listed as “no binding”. In test [5], the Kd is under 40 nM. In the test with ovalbumin, the binding result is listed as “no binding”. Moreover, the binding result in [6] is on record as “no binding”. Also, in [7], the half-maximal inhibitory concentration (IC50) was 4 nM and 3.2 nM and 3.5 nM and 3.6 nM; the Ki is 1.8 nM. Besides, in [8], the “Inhibition of alternative pathway mediated C5a release, average Emax” value worked out at 97.8% and the “Inhibition of alternative pathway mediated C5a release, geomean IC50” value came to 26.6 nM. The “Inhibition of classical pathway mediated C5a release, geomean IC50” value in test [9] turned out to be 4 nM.

B1: hC3nb1-K57 loop 1 with C-terminal single-chain Fc tag (bispecific antibody, not shown: a dimerising Fc or GST)
VHH: QVQLVETGGGLVQASGGGSGCPPGYKSGVDCSPGSECKWGCYAVDGRRYGGYGADSGVSGGGSGSLRLSCAASGSIFSLNAMGWFRQAPGKEREFVATINRSGGRTYYADSVKGRFTISRDNGKNMVYLQMHSLKPEDTAIYYCAAGTGWSPQTDNEYNYWGQGTQVTVSS
B1: in test [10], the “alternative pathway C5b neoepitope ELISA; IC50 (read off the curve)” value was about 200 nM. Besides, the “classical pathway C5b neoepitope ELISA; IC50 (read off the curve)” value in [11] is about 50 nM.

B2: ultralong CDR-H3 of SEQ ID NO: 498 displayed on M13 phage (other)
chain: TTVHQQTHQDQTCPDGYTRTNYYCRRDGCGSWCNGAERQQPCIRGPCCCDLTYRTAYEYHVET
notes: not shown: poly-histidine, c-myc tag, M13 pIII
With B2, the binding result in the test with human serum albumin is reported as “binds”.

B3: hC3nb1 VHH with C-terminal single-chain Fc tag (VHH, not shown: a dimerising Fc or GST)
VHH: QVQLVETGGGLVQAGGSLRLSCAASGSIFSLNAMGWFRQAPGKEREFVATINRSGGRTYYADSVKGRFTISRDNGKNMVYLQMHSLKPEDTAIYYCAAGTGWSPQTDNEYNYWGQGTQVTVSS
notes: also called hC3Nb1 WT
With B3, the binding result in test [12] is “no binding”. Besides, the “alternative pathway C5b neoepitope ELISA; IC50 (read off the curve)” value in test [13] was about 100 nM. In [14], binding was put at a Kd of 0.163 nM. The “classical pathway C5b neoepitope ELISA; IC50 (read off the curve)” value in test [15] was about 10 nM.

B4: hC3nb1-K149 (K149 ultralong CDR-H3 in framework 3 of hC3nb1) displayed on M13 phage (bispecific antibody)
VHH: QVQLVETGGGLVQAGGSLRLSCAASGSIFSLNAMGWFRQAPGKEREFVATINRSGGRTYYADSVKGRFTISRDNGTSVLQSTKPQKSCPDGFSYRSWDDFCCPMVGRCLAPRNTYTTEFTIEAKNMVYLQMHSLKPEDTAIYYCAAGTGWSPQTDNEYNYWGQGTQVTVSS
notes: also called hC3nb1-K149 CDR-H3; not shown: poly-histidine, c-myc tag, M13 pIII
As to B4, the binding result in test [16] and in test [17] was “no binding” each time.
As for TCPEGWSECGVAIYGYECGRWGCGHFLNSGPNISPYVST (also called chemical K92) [K92chemFE knob domain peptide], the “alternative pathway haemolysis assay; IC50 (read off the curve)” value in test [18] is about 200 nM. In test [19], this molecule gave a Kd of 0.411 nM, a koff of 0.000101 s⁻¹ and a kon of 283000 M⁻¹ s⁻¹. Further, in test [20], the “alternative pathway complement ELISA (C5b deposition); IC50 (read off the curve)” value was about 70 nM.
In test [19], GCPPGYKSGVDCSPGSECKWGCYAVDGRRYGGYGADSGVGS [K57chemFE knob domain peptide] gave a Kd of 2.28 nM, a koff of 0.000579 s⁻¹ and a kon of 260000 M⁻¹ s⁻¹. Moreover, the “alternative pathway complement ELISA (C5b deposition); IC50 (read off the curve)” value in [20] was about 90 nM. Further, in test [21], the “classical pathway complement ELISA (C5b deposition); IC50 (read off the curve)” value was about 20 nM. Besides, the “classical pathway haemolysis assay; IC50 (read off the curve)” value in test [22] was about 20 nM. The binding result with rat C5 is recorded as “no binding”.

B5: K57, reduced and cysteines capped with iodoacetamide (peptide)
peptide: GC(Cam)PPGYKSGVDC(Cam)SPGSEC(Cam)KWGC(Cam)YAVDGRRYGGYGADSGVGS
notes: also called K57 (loss of disulphide bonds)
In test [23], B5 came in with a Kd of 76 nM. That is a double-digit nanomolar value.
Take GSKSCREGYIDGGGCCLPGSCRGCACSYYDWLKCPRDCRGTSEEENLYFQ (Recombinant, cut out by TEV protease) [K60 knob domain peptide cleaved from the 645 Fab]: the binding result (in test [24]; with ovalbumin; in [6]) was “no binding” throughout.

B6: K92, reduced and cysteines capped with iodoacetamide (peptide)
peptide: TC(Cam)PEGWSEC(Cam)GVAIYGYEC(Cam)GRWGC(Cam)GHFLNSGPNISPYVST
notes: also called K92 (loss of disulphide bonds)
In the case of B6, the dissociation constant Kd in test [25] was determined as 2000 nM. This lies in the single-digit micromolar range.
